The subject of assay [1] is E. coli cells containing pSPB plasmids (beta-lactamase with the indicated signal peptide). Description: Ampicillin resistance in E. coli carrying pSPB plasmids (colony formation). It counts as cell-based. From the text:
described in Materials and Methods. Resistance to ampicillin was defined
as the maximal concentration of the antibiotic at which 100% of the E.
coli cells could form colonies. Plasmids indicated by pSPA . . . contain
amylase with the indicated signal peptide, plasmids indicated by pSPB . .
. contain lactamase with the indicated signal peptide.

Assay [2] concerns the target pre(A13i)-β-lactamase (B. subtilis; E. coli) (UniProt P62593).
In assay [3] the target is truncated pre-β-lactamase (E.coli) (UniProt P62593).
The target in assay [4] is wild-type TEM pre-β-lactamase (E.coli) (UniProt P62593).
Assay [5] concerns the target pre(A42)-β-lactamase (E. coli) (UniProt P62593).
In assay [6] the target is pre(A2)-β-lactamase (E. coli) (UniProt P62593).
In assay [7] the target is pre(A2d)-β-lactamase (E. coli) (UniProt P62593).
Assay [8] concerns the target pre(A13i)-β-lactamase (B. subtilis; E. coli) (UniProt P62593). The following applies: scale: % of all the.

Four compounds from US5246838A, “Processing of proteins” (priority 1990, dated 1993) can be followed below.

Bounds are passed on as bounds.

Consider `CC1(C)S[C@@H]2[C@H](NC(=O)[C@H](N)c3ccccc3)C(=O)N2[C@H]1C(=O)O` [ampicillin], for which the “E. coli amp. resist. (maximal concentration of the antibiotic at which 100% of the E. coli cells could form colonies)” value in assay [1] (E. coli containing pSPB-A2) was found to be 300 µg/mL; in assay [1] (E. coli containing pSPB-A13), 300 µg/mL; in assay [1] (E. coli containing pSPB-A13i), 100 µg/mL; in assay [1] (E. coli containing pSPB-A42), 20 µg/mL; in assay [1] (E. coli containing pSPB-A2d), 500 µg/mL; in assay [1] (E. coli containing pSPB-A42d), 100 µg/mL.

Consider B. subtilis SPase I (enzyme), for which, in assay [2], the t50, time necessary to obtain equal amounts of the precursor and the mature forms, pulse-chase labeling in B. subtilis DB104 came to 6 min.

Regarding “E.coli SPase I (signal peptidase I) (from UniProt P00803) (enzyme)”, the fraction unprocessed truncated (P') lactamase, pulse-chase labeling, samples 15 s after the chase in assay [3] stood at 63%. For the same compound, the fraction unprocessed wildtype (P) lactamase, pulse-chase labeling, samples 15 s after the chase in assay [4] was determined as 15%. Further, the figures for the t50, time necessary to process 50% of the precursor, pulse-chase labeling in E.coli C600 in assay [5], in assay [6] and in assay [7] were 15 min, 2.2 min and less than 1 min, respectively. The same compound had a relative amount of mature enzyme, pulse-chase labeling in E.coli C600 in assay [8] of 6 to 7.

In the case of S.typhimurium SPase I (enzyme), the fraction unprocessed truncated (P') lactamase, pulse-chase labeling, samples 15 s after the chase in assay [3] was found to be 60%. Also, in assay [4], the fraction unprocessed wildtype (P) lactamase, pulse-chase labeling, samples 15 s after the chase is 16%.
